We go through 7 sequences from the DeepSol protein solubility set.

This series in a line: soluble on expression in E. coli; label from the status in PepcDB or PDB records.
“MSLEMNRYLSFTLFTGLSLLTTIPIEAYTLNPNKTATSILQTNVIEVRSITSVQPIVIYCPVGTVPQLPYQVWVTYSDGQGEYRQTKWSNSALSTEQSEADDKVYPIGSQYTINGFIIGDDTTENGYPITAKIEVVDTKNTISPKLIAHTIPLNNVKINGNNRLTSNRDLAIKEIISWDVSQQLYNYRDTYGLSTEGYTRSDGWDSPETKLKGHGSGHYMSALALAYAAATNPSHKEILRRNITRMVNELRECQERTFVWSEELGRYLEARDFAPEEELKKMKGTWEAFDEHKTKWATYGYGYLNAIPPHHPALIEMYRAYNNSDWVWAPYYSIHKQLAGLIDIATYMDDKSIADKALLIAKDMGLWVWNRMHYRTYVKKDGTQEERRTHPGNRYEMWNMYIAGEVGGMGESLARLSEMVSAPEEKARLIEASNCFDSPAFYEPLSKNIDDIRNRHANQHIPMIIGALRSYLSNNDTFYYHVSHNFWNLIQGRYRYSTGGVGNGEMFRQPYTQIVSMAMNGVSEGESHSNPHINETCCAYNLLKLTKDLNCLNPDDARYMDYYERTLYNQIIGSLHPEHHQTTYQYAVGLNASKPWGNETPQSTCCGGTGSENHVKYQEATYFVSDNTLWVALYMPTTLHWEEKNITLQQECLWPAKSSTIKVTAGEARFAMKLRVPYWATDGFDVKLNGISIATHYQPCSYAVIPTRQWKENDIVEITMPFTKHIDYGPDKLPAEIASKDGHQLETAWVGTLMHGPFAMTATDITNWTEATLNIDSRLASITVVEPNGPQTGTTGNLYTLMQGGRTFQPDYYRHDHTTHYFRINHIKDPTEGHHHHHH”: the “soluble on expression in E. coli” value is on record as “soluble”. With “VRWIVDGMNVIGSRPDGWWRDRHRAMVMLVERLEGWAITKARGDDVTVVFERPPSTAIPSSVVEVAHAPKAAANSADDEIVRLVRSGAQPQEIRVVTSDKALTDRVRDLGAAVYPAERFRDLIDPRGSNAARRTQ” the entry was “soluble”; with “MMLNAWHLPVPPFVKQSKDQLLITLWLTGEDPPQRIMLRTEHDNEEMSVPMHKQRSQPQPGVTAWRAAIDLSSGQPRRRYSFKLLWHDRQRWFTPQGFSRMPPARLEQFAVDVPDIGPQWAADQIFYQIFPDRFARSLPREAEQDHVYYHHAAGQEIILRDWDEPVTAQAGGSTFYGGDLDGISEKLPYLKKLGVTALYLNPVFKAPSVHKYDTEDYRHVDPQFGGDGALLRLRHNTQQLGMRLVLDGVFNHSGDSHAWFDRHNRGTGGACHNPESPWRDWYSFSDDGTALDWLGYASLPKLDYQSESLVNEIYRGEDSIVRHWLKAPWNMDGWRLDVVHMLGEAGGARNNMQHVAGITEAAKETQPEAYIVGEHFGDARQWLQADVEDAAMNYRGFTFPLWGFLANTDISYDPQQIDAQTCMAWMDNYRAGLSHQQQLRMFNQLDSHDTARFKTLLGRDIARLPLAVVWLFTWPGVPCIYYGDEVGLDGKNDPFCRKPFPWQVEKQDTALFALYQRMIALRKKSQALRHGGCQVLYAEDNVVVFVRVLNQQRVLVAINRGEACEVVLPASPFLNAVQWQCKEGHGQLTDGILALPAISATVWMN”, “soluble”; with “MYTAIVNLKTYREATGANFTRFMEKFEPVQGKFELIFSPSLLDLEKAAKCGKFRFFAQHVDAEPYGAYTGHVPMDMMIDLGITGSILNHSERRLPRDTIINTLKKASKLDFTIVLCVENAEEAKYFREYEPDFIAYEPRDLIGGDVSVSTAKPEIIEDIVKIYEGTGTSVLVGAGIKTGEDVRRSIGLGARGILVASGVVKSADPTKSLNSLIELK”, “not soluble”.

With “MGSDKIHHHHHHMRRADRLFQIVQILRHRRLTTAKQLAERLEVSSRTIYRDIQDLCLSGIPIEGEAGVGYLLRQEVNVPPLMFNEQELEAIQVGMRMVQAQGGHELASAAKQAMIKVEAVLPERLKAYQSLMFAPDFYSEGQLFSFLDLLRRTSREREYILLSYQDGKQSSSERQVRPLALYYWQGVWTLLAWCELRGDFRNFRVDRIVGVLPLGSHFQHTPGQEMPDYIAMMQAQYGEC”, the “soluble on expression in E. coli” value is given as “not soluble”.

In the case of “MGHHHHHHSHMEGTQETYTVAHEENVRFVSEAWQQVQQQLDGGPAGEGGPRPVQYVERTPNPRLQNFVPIDLDEWWGAAVPGENHQLFLVAAGRGRCYTADLSPGEKHGALPTHCAWLGAGHT”, the “soluble on expression in E. coli” value was “not soluble”. With “MKVAIVHNSEEKSKQVTKQLTTLLEQNQIQIDNRQPELVISVGGDGTLLSAFHRFNHLLNEVSFLGVHTGHLGFYTDWRDYELKELVESLCIHREKSTSYPLLDVRIRFRDGKPDKHFLALNESTIKRGNRTMVGDVFIKDELFERFRGDGLSISTPTGSTAYNKSIGGAVLHPSINAFQLTEIASLNNRVFRTLGSPIVIAHTEWLEIKLQESDDYFVTVDQLDIYQENIASVCYRIADERIHFASYRHMHFWHRVKDAFIGEDLEHHHHHH” the entry was “soluble”.
